Results on 1 molecule are retold here after article doi:10.1101/2024.12.13.628402 (bioRxiv, 2024).

The test concerns the target T1, His6-YidC (E. coli, UniProt P25714 1-548).
T1 sequence (looked up): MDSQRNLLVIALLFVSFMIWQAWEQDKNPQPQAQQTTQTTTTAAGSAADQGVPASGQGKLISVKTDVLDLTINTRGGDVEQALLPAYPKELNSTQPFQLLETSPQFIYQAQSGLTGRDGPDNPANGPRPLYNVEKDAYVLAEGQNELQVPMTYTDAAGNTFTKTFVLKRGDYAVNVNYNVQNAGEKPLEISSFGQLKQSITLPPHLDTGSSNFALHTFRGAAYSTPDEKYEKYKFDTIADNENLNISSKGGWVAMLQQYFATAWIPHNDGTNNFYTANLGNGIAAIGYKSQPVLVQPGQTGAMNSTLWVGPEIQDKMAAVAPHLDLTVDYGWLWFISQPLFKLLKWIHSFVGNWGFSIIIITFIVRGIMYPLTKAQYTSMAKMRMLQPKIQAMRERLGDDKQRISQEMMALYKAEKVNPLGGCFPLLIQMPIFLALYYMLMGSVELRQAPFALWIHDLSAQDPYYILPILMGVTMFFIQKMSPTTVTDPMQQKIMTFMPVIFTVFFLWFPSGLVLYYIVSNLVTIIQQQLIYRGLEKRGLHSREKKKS
Put plainly: native gel or EMSA. In general terms: A gel shift assay detects complexes by their altered migration in electrophoresis.

B1: YibN-His6 (natural protein, E. coli, UniProt P0AG27 1-143, looked up)
chain: MQEIMQFVGRHPILSIAWIALLVAVLVTTFKSLTSKVKVITRGEATRLINKEDAVVVDLRQRDDFRKGHIAGSINLLPSEIKANNVGELEKHKDKPVIVVDGSGMQCQEPANALTKAGFAQVFVLKEGVAGWAGENLPLVRGK
For the molecule B1, the binding result is given as “binds”.
